This is an account of results in article doi:10.1101/2020.04.07.028951 (bioRxiv, 2020).

In series [1] the target is Clostridium novyi CBS-PPase (cnPPase) (Clostridium novyi). Description: AUC.
The target is the same in series [2]. As to the kind of experiment: cross-linking.
In series [3] the target is Desulfitobacterium hafniense CBS-PPase (dhPPase), full-size (Desulfitobacterium hafniense). Description: AUC.
Series [4] has the same target. As to the kind of experiment: cross-linking.
Series [5] has the same target. Description: enzyme activity after dilution.
Series [6] deals with Eggerthella lenta CBS-PPase (elPPase) (Eggerthella lenta). As to the kind of experiment: AUC.
Series [7] concerns the target Ethanoligenens harbinense CBS-PPase (ehPPase) (Ethanoligenens harbinense). Description: AUC.
Series [8] has the same target. As to the kind of experiment: cross-linking.
The target in series [9] is dhCDC, separate regulatory part of dhPPase (residues 63-306) (Desulfitobacterium hafniense). Description: AUC.
Series [10] shares this target. As to the kind of experiment: cross-linking.
Series [11] shares this target. As to the kind of experiment: AUC. This is another data set of the same source.
Series [12] addresses dhPPaseΔCDC, separate catalytic part of D. hafniense CBS-PPase (Desulfitobacterium hafniense). As to the kind of experiment: AUC.
Series [13] shares this target. As to the kind of experiment: cross-linking.
For series [14] the target is unchanged. Description: enzyme activity after dilution.
Series [15] deals with the molecule itself. Description: cross-linking.

For the molecule “Clostridium novyi CBS-PPase (cnPPase) (enzyme)”, the stoichiometry N in series [1] and in series [2] was 4 throughout.

Regarding “Desulfitobacterium hafniense CBS-PPase (dhPPase), full-size (enzyme)”, in series [3], the stoichiometry N stood at 4. The molecule further displayed a stoichiometry N in [4] of 4. Also, in series [5], the percent dissociated at 3 µM was 10% and the percent tetrameric at 1 µM was 79%.

Regarding “Eggerthella lenta CBS-PPase (elPPase) (enzyme)”, the stoichiometry N in series [6] was 4.

For the molecule “Ethanoligenens harbinense CBS-PPase (ehPPase) (enzyme)”, the stoichiometry N in series [7] was determined as 4; in series [8], 2.

Turning to “dhCDC, separate regulatory part of dhPPase (residues 63-306) (domain or fragment)”, the stoichiometry N in series [9], in series [10] and in [11] was 2 each time.

On to “dhPPaseΔCDC, separate catalytic part of D. hafniense CBS-PPase (enzyme)”, for which the stoichiometry N in [12] and in series [13] was 2 each time. Moreover, the koff in series [14] is 0.04 s⁻¹. Moreover, the percent dimeric at 5.8 µM in [14] was found to be 37%.

B1: Clostridium perfringens CBS-PPase (cpPPase) (enzyme)
chain: MKDVIYITGHKNPDSDSICAALAYAEFKNKTQDTPAIPVRLGNVSQETQYILDYFGVEAPQFLETVKLKVEDLEMDKIAPLAPEVSLKMAWNIMRDKNLKSIPVADGNNHLLGMLSTSNITATYMDIWDSNILAKSATSLDNILDTLSAEAQNINEERKVFPGKVVVAAMQAESLKEFISEGDIAIAGDRAEIQAELIELKVSLLIVTGGHTPSKEIIELAKKNNITVITTPHDSFTASRLIVQSLPVDYVMTKDNLVAVSTDDLVEDVKVTMSETRYSNYPVIDENNKVVGSIARFHLISTHKKKVIQVDHNERGQSVHGLEDAEVLEIIDHHRVADIQTGNPIYFRNEPLGSTSTIVAKRFFENGIRPSREAAGLLCGAIISDTLLFKSPTCTPQDVKMCRKLAEIAGIVPETFAKEMFKAGTSLKGKSIEEIFNADFKPFTIEGVKVGVAQVNTMDIEGFMPLKGEMLDYMNQKAESMGLEMIMLLLTDIINEGSQILVAGRSPEIAEEAFKVKLEDSTTFLPGVLSRKKQVVPPLTQIITTRVSK
For B1, the “stoichiometry N” value in series [15] was found to be 4.
